Test results reported in the supplement of paper PMC10126150.
± gives the standard deviation of the averaged measurements.

Tested on: ATP
Test: switch fluorescence ratio, 500 uM ATP over buffer (Cy3 cluster intensity, sum of 5 cycles each) (fold (ratio)); higher = stronger signal-on switching upon ATP binding; sequences stand for … in TCGTCGGCAGCGTCAGATGTGTATAAGAGACAGTTTTTTTTTTTTTTTTTTTTTTTTT…TC
Conditions: aptamer strand: ATP DNA aptamer (quencher-CACCTGGGGGAGTATTGCGGAGGAAGG + anchor), 100 nM annealed; ATP concentration: 500 uM
In short: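 The quencher-labelled ATP aptamer, at 100 nM, was annealed to Cy3-labelled switching-strand clusters on a modified Illumina MiSeq flow-cell. The clusters were imaged in selection buffer, then after 15 min with 500 uM ATP at 22 °C, and this buffer/ATP cycle ran five times with NaOH stripping and re-annealing between runs. Per-cluster fluorescence ratios, summed target-cycle over summed buffer-cycle Cy3 intensity, were averaged per switch-domain sequence. Clusters outside 100-1000 RFU were excluded.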
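Further: ATP exposure 15 min at 22 °C before imaging.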

ATGAGGAGGG
switch fluorescence ratio: 1.02 ± 0.023

ATGAGGCATT
switch fluorescence ratio: 1.04 ± 0.016

ATGAGGCCGG
switch fluorescence ratio: 1.12 ± 0.066

ATGAGGGCTT
switch fluorescence ratio: 0.981 ± 0.055

ATGAGGGGAG
switch fluorescence ratio: 0.997 ± 0.013

ATGAGGGGGG
switch fluorescence ratio: 0.986 ± 0.031

ATGAGGGT
switch fluorescence ratio: 1.01 ± 0.015

ATGAGGTTGG
switch fluorescence ratio: 0.973 ± 0.055

ATGAGTAAGG
switch fluorescence ratio: 0.991 ± 0.013

ATGAGTAGGA
switch fluorescence ratio: 1.017 ± 0.0061

ATGAGTATGT
switch fluorescence ratio: 0.9961 ± 0.0014

ATGAGTCATT
switch fluorescence ratio: 0.987 ± 0.026

ATGAGTGCTT
switch fluorescence ratio: 0.9776 ± 0.0075

ATGATAATGT
switch fluorescence ratio: 0.985 ± 0.014

ATGATAGAGG
switch fluorescence ratio: 0.991 ± 0.025

ATGATATCTC
switch fluorescence ratio: 1.02 ± 0.047

ATGATCGGAT
switch fluorescence ratio: 0.977 ± 0.051

ATGATGAATA
switch fluorescence ratio: 0.949 ± 0.017

ATGATGCGTG
switch fluorescence ratio: 0.981 ± 0.015

ATGATGGGGG
switch fluorescence ratio: 0.984 ± 0.027

ATGATGTGGT
switch fluorescence ratio: 0.992 ± 0.022

ATGATTAATT
switch fluorescence ratio: 1.03 ± 0.017

ATGATTCGTG
switch fluorescence ratio: 0.972 ± 0.028

ATGATTGATG
switch fluorescence ratio: 1.02 ± 0.019

ATGATTGCGT
switch fluorescence ratio: 0.991 ± 0.018

ATGATTGGCA
switch fluorescence ratio: 0.99 ± 0.026

ATGATTTACT
switch fluorescence ratio: 1.02 ± 0.02

ATGATTTCGT
switch fluorescence ratio: 0.9793 ± 0.0085

ATGATTTGGG
switch fluorescence ratio: 1.01 ± 0.011

ATGCAAGGGC
switch fluorescence ratio: 1.08 ± 0.024

ATGCAAGGTT
switch fluorescence ratio: 1.01 ± 0.018

ATGCAATCAT
switch fluorescence ratio: 1.038 ± 0.0026

ATGCAATGTC
switch fluorescence ratio: 1.38 ± 0.22

ATGCACGAAG
switch fluorescence ratio: 1 ± 0.057

ATGCACGGGC
switch fluorescence ratio: 1.01 ± 0.047

ATGCACTGCT
switch fluorescence ratio: 1.04 ± 0.021

ATGCAGGTCC
switch fluorescence ratio: 1.03 ± 0.037

ATGCAGTATT
switch fluorescence ratio: 1.03 ± 0.025

ATGCATTAAG
switch fluorescence ratio: 0.992 ± 0.051

ATGCCATGTG
switch fluorescence ratio: 1 ± 0.022

ATGCCATTAA
switch fluorescence ratio: 0.9718 ± 0.0018

ATGCCCAGCT
switch fluorescence ratio: 1.0068 ± 0.00025

ATGCGAGCGG
switch fluorescence ratio: 0.985 ± 0.014

ATGCGATTTG
switch fluorescence ratio: 1 ± 0.057

ATGCGCACCG
switch fluorescence ratio: 1.05 ± 0.023

ATGCGCAGAT
switch fluorescence ratio: 1.046 ± 0.0063

ATGCGCTAAT
switch fluorescence ratio: 1.07 ± 0.013

ATGCGCTCTA
switch fluorescence ratio: 0.992 ± 0.018

ATGCGGTTTT
switch fluorescence ratio: 0.986 ± 0.03

ATGCTAGTTG
switch fluorescence ratio: 0.98924 ± 0.0007

ATGCTGAGGA
switch fluorescence ratio: 0.977 ± 0.042

ATGCTGGTAT
switch fluorescence ratio: 0.981 ± 0.024

ATGCTGGTTA
switch fluorescence ratio: 0.996 ± 0.016

ATGCTTAGTT
switch fluorescence ratio: 1.03 ± 0.051

ATGCTTATGG
switch fluorescence ratio: 0.994 ± 0.037

ATGCTTATTG
switch fluorescence ratio: 0.973 ± 0.015

ATGCTTGAAC
switch fluorescence ratio: 1.037 ± 0.0095

ATGCTTTCAG
switch fluorescence ratio: 0.983 ± 0.012

ATGGAAAATG
switch fluorescence ratio: 1.04 ± 0.037

ATGGAACGGA
switch fluorescence ratio: 1.03 ± 0.027

ATGGAAGGAT
switch fluorescence ratio: 1.005 ± 0.0065

ATGGAATAAG
switch fluorescence ratio: 0.998 ± 0.028

ATGGACGCCT
switch fluorescence ratio: 1.01 ± 0.037

ATGGACGTGT
switch fluorescence ratio: 0.9935 ± 0.0033

ATGGACTAGG
switch fluorescence ratio: 1.02 ± 0.022

ATGGAGAGGG
switch fluorescence ratio: 0.987 ± 0.037

ATGGAGATAG
switch fluorescence ratio: 1.01 ± 0.026

ATGGAGCTTG
switch fluorescence ratio: 0.983 ± 0.02

ATGGAGGCAA
switch fluorescence ratio: 1.37 ± 0.12

ATGGAGGCTT
switch fluorescence ratio: 0.975 ± 0.018

ATGGAGGGAC
switch fluorescence ratio: 1.48 ± 0.66

ATGGAGGGCA
switch fluorescence ratio: 1.03 ± 0.049

ATGGAGGGGT
switch fluorescence ratio: 1 ± 0.045

ATGGAGGTAG
switch fluorescence ratio: 0.995 ± 0.027

ATGGAGGTCT
switch fluorescence ratio: 1.01 ± 0.055

ATGGATAT
switch fluorescence ratio: 0.98 ± 0.031

ATGGATCCGG
switch fluorescence ratio: 1.03 ± 0.083

ATGGATGATG
switch fluorescence ratio: 0.991 ± 0.018

ATGGATGCGT
switch fluorescence ratio: 0.967 ± 0.015

ATGGATGGGG
switch fluorescence ratio: 0.998 ± 0.028

ATGGATTTT
switch fluorescence ratio: 1.001 ± 0.0019

ATGGCAGCAT
switch fluorescence ratio: 1.012 ± 0.0057

ATGGCCAGCA
switch fluorescence ratio: 1.01 ± 0.03

ATGGCCGGCC
switch fluorescence ratio: 1.01 ± 0.02

ATGGCCGGGA
switch fluorescence ratio: 0.999 ± 0.016

ATGGCCTATA
switch fluorescence ratio: 1.01 ± 0.028

ATGGCTGTGG
switch fluorescence ratio: 0.9852 ± 0.0085

ATGGCTTAGC
switch fluorescence ratio: 0.983 ± 0.015

ATGGGAAACG
switch fluorescence ratio: 0.995 ± 0.014

ATGGGAATTT
switch fluorescence ratio: 0.996 ± 0.028

ATGGGACGGG
switch fluorescence ratio: 1 ± 0.019

ATGGGACGTT
switch fluorescence ratio: 0.983 ± 0.037

ATGGGAGATG
switch fluorescence ratio: 0.983 ± 0.0045

ATGGGAGGAT
switch fluorescence ratio: 1.018 ± 0.0027

ATGGGAGGGT
switch fluorescence ratio: 0.997 ± 0.061

ATGGGCGAAC
switch fluorescence ratio: 1.63 ± 0.82

ATGGGCGGGG
switch fluorescence ratio: 0.9947 ± 0.0065

ATGGGCTATA
switch fluorescence ratio: 1.03 ± 0.094

ATGGGCTCAG
switch fluorescence ratio: 1.005 ± 0.0033

ATGGGCTCCG
switch fluorescence ratio: 0.974 ± 0.015

ATGGGCTGAG
switch fluorescence ratio: 0.992 ± 0.017

ATGGGCTGG
switch fluorescence ratio: 0.975 ± 0.031

ATGGGCTTCT
switch fluorescence ratio: 1.018 ± 0.0091

ATGGGCTTGC
switch fluorescence ratio: 0.994 ± 0.083

ATGGGGACTT
switch fluorescence ratio: 0.979 ± 0.035

ATGGGGAGCG
switch fluorescence ratio: 0.992 ± 0.031

ATGGGGATAC
switch fluorescence ratio: 1.06 ± 0.026

ATGGGGCTTG
switch fluorescence ratio: 1.05 ± 0.099

ATGGGGGAGC
switch fluorescence ratio: 0.981 ± 0.011

ATGGGGGATA
switch fluorescence ratio: 0.973 ± 0.041

ATGGGGGTGC
switch fluorescence ratio: 0.99 ± 0.026

ATGGGGTAAT
switch fluorescence ratio: 1.01 ± 0.028

ATGGGGTCTG
switch fluorescence ratio: 1.05 ± 0.095

ATGGGGTGTA
switch fluorescence ratio: 1 ± 0.03

ATGGGGTGTT
switch fluorescence ratio: 1 ± 0.024

ATGGGTCAAT
switch fluorescence ratio: 1 ± 0.014

ATGGGTCTCT
switch fluorescence ratio: 0.997 ± 0.017

ATGGGTCTGC
switch fluorescence ratio: 1.16 ± 0.31

ATGGGTGATC
switch fluorescence ratio: 1.01 ± 0.011

ATGGGTGGG
switch fluorescence ratio: 0.965 ± 0.032

ATGGGTGTAC
switch fluorescence ratio: 1.01 ± 0.016

ATGGGTGTCC
switch fluorescence ratio: 1.004 ± 0.0056

ATGGTACACC
switch fluorescence ratio: 1.04 ± 0.013

ATGGTAGCTT
switch fluorescence ratio: 1 ± 0.024

ATGGTAGGGG
switch fluorescence ratio: 0.986 ± 0.014

ATGGTAGGTG
switch fluorescence ratio: 1.04 ± 0.083

ATGGTATCAG
switch fluorescence ratio: 1.007 ± 0.0084

ATGGTATGGT
switch fluorescence ratio: 0.9855 ± 0.0081

ATGGTCAGGG
switch fluorescence ratio: 0.987 ± 0.026

ATGGTCGGAT
switch fluorescence ratio: 0.9804 ± 0.0098

ATGGTCGGTC
switch fluorescence ratio: 0.989 ± 0.036

ATGGTGAATT
switch fluorescence ratio: 1.016 ± 0.0044

ATGGTGCGGG
switch fluorescence ratio: 1.02 ± 0.033

ATGGTGGGAG
switch fluorescence ratio: 0.992 ± 0.0061

ATGGTTAGGT
switch fluorescence ratio: 1.02 ± 0.029

ATGGTTCCTG
switch fluorescence ratio: 1.03 ± 0.078

ATGGTTTAA
switch fluorescence ratio: 1 ± 0.044

ATGGTTTACG
switch fluorescence ratio: 1.05 ± 0.077

ATGGTTTTGT
switch fluorescence ratio: 0.959 ± 0.022

ATGGTTTTTT
switch fluorescence ratio: 1 ± 0.032

ATGTAAAGAC
switch fluorescence ratio: 1.05 ± 0.04

ATGTAAAGCA
switch fluorescence ratio: 1.02 ± 0.036

ATGTAAAGGT
switch fluorescence ratio: 1.04 ± 0.058

ATGTAAATGC
switch fluorescence ratio: 0.995 ± 0.02

ATGTAACATG
switch fluorescence ratio: 1 ± 0.027

ATGTAAGTGC
switch fluorescence ratio: 0.967 ± 0.064

ATGTAATATA
switch fluorescence ratio: 1.02 ± 0.06

ATGTAATATT
switch fluorescence ratio: 1.01 ± 0.033

ATGTAATCAT
switch fluorescence ratio: 1.01 ± 0.024

ATGTAATTTA
switch fluorescence ratio: 1 ± 0.017

ATGTACGATA
switch fluorescence ratio: 1.14 ± 0.043

ATGTAGCATT
switch fluorescence ratio: 1.21 ± 0.0026

ATGTAGCTGG
switch fluorescence ratio: 1.07 ± 0.033

ATGTAGGGGA
switch fluorescence ratio: 1.0051 ± 0.001

ATGTAGGGGC
switch fluorescence ratio: 1.03 ± 0.046

ATGTAGGTGA
switch fluorescence ratio: 1.03 ± 0.017

ATGTAGTCGC
switch fluorescence ratio: 1.004 ± 0.0012

ATGTAGTTAT
switch fluorescence ratio: 0.996 ± 0.048

ATGTAGTTCG
switch fluorescence ratio: 0.981 ± 0.03

ATGTATACTT
switch fluorescence ratio: 1.09 ± 0.14

ATGTATAGCC
switch fluorescence ratio: 0.995 ± 0.036

ATGTATAGGA
switch fluorescence ratio: 0.992 ± 0.029

ATGTATATGC
switch fluorescence ratio: 1.08 ± 0.069

ATGTATCAGG
switch fluorescence ratio: 1.03 ± 0.022

ATGTATTTTG
switch fluorescence ratio: 0.967 ± 0.049

ATGTCAAGGC
switch fluorescence ratio: 1.05 ± 0.052

ATGTCACTGT
switch fluorescence ratio: 1.01 ± 0.043

ATGTCATAAA
switch fluorescence ratio: 1.0269 ± 0.0006

ATGTCATGGG
switch fluorescence ratio: 0.998 ± 0.032

ATGTCCAGGG
switch fluorescence ratio: 1.21 ± 0.04

ATGTCCGAAT
switch fluorescence ratio: 1.02 ± 0.012

ATGTCTTGAT
switch fluorescence ratio: 0.963 ± 0.014

ATGTGAGGGA
switch fluorescence ratio: 0.991 ± 0.02

ATGTGATGAA
switch fluorescence ratio: 0.973 ± 0.019

ATGTGATGGC
switch fluorescence ratio: 0.981 ± 0.019

ATGTGCCGTC
switch fluorescence ratio: 1.04 ± 0.048

ATGTGCTTGG
switch fluorescence ratio: 1.02 ± 0.027

ATGTGGAGTC
switch fluorescence ratio: 1.05 ± 0.063

ATGTGGATGC
switch fluorescence ratio: 0.98 ± 0.045

ATGTGGATGG
switch fluorescence ratio: 0.976 ± 0.023

ATGTGGCCGG
switch fluorescence ratio: 0.997 ± 0.024

ATGTGGCCTA
switch fluorescence ratio: 0.986 ± 0.034

ATGTGGCTTA
switch fluorescence ratio: 0.989 ± 0.022

ATGTGGGCTG
switch fluorescence ratio: 0.979 ± 0.045

ATGTGGGTAC
switch fluorescence ratio: 1.02 ± 0.026

ATGTGGGTAT
switch fluorescence ratio: 1.028 ± 0.0068

ATGTGGGTTT
switch fluorescence ratio: 0.974 ± 0.021

ATGTGGTCGC
switch fluorescence ratio: 0.9972 ± 0.0016

ATGTGTAAAC
switch fluorescence ratio: 1.01 ± 0.038

ATGTGTAACC
switch fluorescence ratio: 1 ± 0.039

ATGTGTAGGC
switch fluorescence ratio: 1.02 ± 0.026

ATGTGTAGGG
switch fluorescence ratio: 0.9711 ± 0.0014

ATGTGTATTG
switch fluorescence ratio: 0.985 ± 0.025

ATGTGTGGAG
switch fluorescence ratio: 1.013 ± 0.0048

ATGTGTGTGG
switch fluorescence ratio: 1.03 ± 0.017

ATGTGTTACC
switch fluorescence ratio: 1.01 ± 0.021

ATGTTAAATC
switch fluorescence ratio: 0.96 ± 0.029

ATGTTAACTA
switch fluorescence ratio: 0.985 ± 0.065

ATGTTAGTGG
switch fluorescence ratio: 1.01 ± 0.066

ATGTTATTGG
switch fluorescence ratio: 0.967 ± 0.033
